From PMC6099927, “Aptamer Display on Diverse DNA Polyhedron Supports”

What was measured:
[1] = target: T1, Plasmodium falciparum lactate dehydrogenase (PfLDH) (Plasmodium falciparum, UniProt Q27743 1-316); assay: APTEC plate capture assay (enzyme activity of captured PfLDH), logistic fit; 2x PBS binding buffer (recombinant PfLDH), 1 h, streptavidin plate coated with DNA, PBST (0.1% Tween-20) washes, absorbance 570 nm; blood: 1:1 with PBS 0.5% Triton X-100; pH and temperature not stated; settings: protein: recombinant; tags: His (HisTrap purified); chain copies: 4; label: 5' biotin; single strand
[2] = target: T1, Plasmodium falciparum lactate …; assay: APTEC plate capture assay; 2x PBS binding buffer (recombinant PfLDH), 1 h, streptavidin plate coated with DNA, PBST (0.1% Tween-20) washes, absorbance 570 nm; blood: 1:1 with PBS 0.5% Triton X-100; pH and temperature not stated; settings: protein: recombinant, tags: His (HisTrap purified), chain copies: 4
[3] = target: T1, Plasmodium falciparum lactate …; assay: APTEC plate capture assay; higher signal than aptamer alone; 2x PBS binding buffer (recombinant PfLDH), 1 h, streptavidin plate coated with DNA, PBST (0.1% Tween-20) washes, absorbance 570 nm; blood: 1:1 with PBS 0.5% Triton X-100; pH and temperature not stated; settings: protein: recombinant, tags: His (HisTrap purified), chain copies: 4

T1 sequence (Q27743 whole entry): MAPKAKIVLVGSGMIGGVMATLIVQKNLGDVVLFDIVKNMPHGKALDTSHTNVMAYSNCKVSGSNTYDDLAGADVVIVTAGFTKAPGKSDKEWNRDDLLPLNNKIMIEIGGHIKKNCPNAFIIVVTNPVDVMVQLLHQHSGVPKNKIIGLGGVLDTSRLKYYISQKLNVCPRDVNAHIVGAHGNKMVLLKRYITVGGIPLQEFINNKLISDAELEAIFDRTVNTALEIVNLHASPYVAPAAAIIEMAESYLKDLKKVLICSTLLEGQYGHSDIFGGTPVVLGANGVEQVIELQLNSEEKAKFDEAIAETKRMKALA

B1: PfLDH aptamer alone (Apt) (structured_DNA)
DNA: CTGGGCGGTAGAACCATAGTGACCCAGCCGTCTAC
Kd [1]: 12.7 ± 0.71 nM

B2: aptamer-tetrahedron 1 (mixed)
DNA 1: TTTTGCGGCTGGAGCCATGTCATCAGGGGCACGTCTCTAGGACGCGGCCGGGTCT
DNA 2: TTCATGGCTCCAGCCGCAATGACGGGACCGTGTGCCTGAGC
DNA 3: TTGAGACGTGCCCCTGATGTGCTCAGGCACTGCAGGGCAAA
DNA 4: CTGGGCGGTAGAACCATAGTGACCCAGCCGTCTACTTCGGTCCCGTCTAGACCCGGCCGCGTCCTTTTTGCCCTGC
Kd ([2]; label: 5' biotin on Ta, T1b, T1c, tetrahedron of 4 strands, height 2.65 nm): 1.22 ± 0.13 nM

B3: aptamer-tetrahedron 3 (mixed)
DNA 1: TTTTGCGGCTGGAGCCATGTCATCAGGGGCACGTCTCTAGGACGCGGCCGGGTCT
DNA 2: TTCATGGCTCCAGCCGCAATTGATCATTGAGTGTCGGTGGCGATGTCTCCCCGATAAAGCGTATGTTATAAGTCT
DNA 3: TTGAGACGTGCCCCTGATGTAGACTTATAACATACGCTTTATCGGGGTCCGGAGCCATCACACCTGGATCAGGAC
DNA 4: CTGGGCGGTAGAACCATAGTGACCCAGCCGTCTACTTGACATCGCCACCGACACTCAATGATCATAGACCCGGCCGCGTCCTTGTCCTGATCCAGGTGTGATGGCTCCGG
Kd ([2]; label: 5' biotin on Ta, T3b, T3c, tetrahedron of 4 strands, height 10.55 nm): 1.61 ± 0.1 nM

B4: aptamer-tetrahedron 2 (mixed)
DNA 1: TTTTGCGGCTGGAGCCATGTCATCAGGGGCACGTCTCTAGGACGCGGCCGGGTCT
DNA 2: TTCATGGCTCCAGCCGCAATTATCTAGCGATCTCACCTCGTCAAGGGTAAGCCCG
DNA 3: TTGAGACGTGCCCCTGATGTCGGGCTTACCCTTGACGTGTGGTAATTGTTGTGTA
DNA 4: CTGGGCGGTAGAACCATAGTGACCCAGCCGTCTACTTGGTGAGATCGCTAGATATAGACCCGGCCGCGTCCTTTACACAACAATTACCAC
Kd ([2]; label: 5' biotin on Ta, T2b, T2c, tetrahedron of 4 strands, height 6.72 nm): 2.09 ± 0.15 nM

B5: aptamer pentagon-based pyramid (mixed)
DNA 1: TTCGGCCGATCTGGCATAGGCTTCCCCAACGTTATCTCGCGTGGCGTACGG
DNA 2: TTGATCGGCCGTTCCGCGCGTCCTGCCCTAGACGCCCCTGGGCCC
DNA 3: TTGCCTATGCCTGGGCCCAGGGGCGTCTTGGAGTCAACAGGTCGG
DNA 4: TTCGTTGGGGATCCGACCTGTTGACTCCTCCCGTCGACCAAAGAT
DNA 5: TTCGCGAGATATATCTTTGGTCGACGGGTCTCAGCCCTGACCCCA
DNA 6: CTGGGCGGTAGAACCATAGTGACCCAGCCGTCTACTTGGGCAGGACGCGCGGATCCGTACGCCTTGGGGTCAGGGCTGAG
Kd ([2]; label: 5' biotin on P2a-P2e, pentagon-based pyramid of 6 strands): 14.8 ± 0.8 nM

B6: aptamer with double-stranded spacer (C2a/C2b) (mixed)
DNA 1: CTGGGCGGTAGAACCATAGTGACCCAGCCGTCTACTTTGGGGCCGGGCGCGCCCCGGTT
DNA 2: TTCCGGGGCGCGCCCGGCCCCA
binding result ([3]; label: 3' biotin on C2a, 20 bp spacer duplex, 5' aptamer overhang): binds

B7: aptamer with single-stranded spacer (C2a) (structured_DNA)
DNA: CTGGGCGGTAGAACCATAGTGACCCAGCCGTCTACTTTGGGGCCGGGCGCGCCCCGGTT
binding result ([3]; label: 3' biotin, single strand): binds

B8: aptamer square-based pyramid (mixed)
DNA 1: TTATGTAACCGTGTCACTCCAGGTGTACTTCCTAAAATCGCGCGACCAG
DNA 2: TTCACGGTTACATTCTGTGTTGGCACGGCGTCGTCCGGGTGGCGGTT
DNA 3: TTCACCTGGAGTGTAACCGCCACCCGGACGTCGTTCGTCAAATAGTG
DNA 4: TTTTTTAGGAAGTTCACTATTTGACGAACGTGCTATGCCGCGCGCCT
DNA 5: CTGGGCGGTAGAACCATAGTGACCCAGCCGTCTACTTCGCCGTGCCAACACAGTCTGGTCGCGCGTAGGCGCGCGGCATAGC
Kd ([2]; label: 5' biotin on P1a-P1d, square-based pyramid of 5 strands): 5.99 ± 0.64 nM
